Test results from patent US20150246949A1, “Desmoglein 2 (DSG2) Binding Proteins and Uses Therefor” (UNIVERSITY OF WASHINGTON THROUGH ITS CENTER FOR …, priority 2012, published 2015).
Substitutions are numbered along the chain they refer to. “Also recorded” adds a separate entry of the source.

B1: JO-1: recombinant protein with the Ad3 fiber knob and a domain for self-dimerization of trimeric knobs (SEQ ID NO:27) (protein)
chain: MKVSALKEKVSALKEKVSALKEKVSALKEKVSALKEGSGGGSGGGSGGGSNSIALKNNTLWTGPKPEANCIIEYGKQNPDSKLTLILVKNGGIVNGYVTLMGASDYVNTLFKNKNVSINVELYFDATGHILPDSSSLKTDLELKYKQTADFSARGFMPSTTAYPFVLPNAGTHNENYIFGQCYYKASDGALFPLEVTVMLNKRLPDSRTSYVMTFLWSLNAGLAPETTQATLITSPFTFSYIREDD
B2: JO-4 (protein)
chain: B1 chain with Y177F

Legend:
ovc316 xenograft tumors = test: Enhancement of PLD therapy in ovc316 ovarian cancer xenograft model; format: in vivo, CB17 mice; details: weekly
Description: FIG. 10. Combination of affinity-enhanced JO-1 versions with chemotherapy. A) Enhancement of irinotecan (I) therapy. The experimental setting was the same as in FIG. 5B. […] N=5. […] Mammary fat pad tumors were established from primary ovarian cancer ovc316 cells. Treatment was started when tumors reached a volume of 100 mm^3 Mice were injected intravenously with 2 mg/kg JO-1 or with 0.5 mg/kg JO-4, followed by an intravenous injection of PEGylated liposomal doxorubicin (PLD) (1 mg/kg) one hour later. Treatment was repeated weekly. […] A total of 4×10^6 TNBC MDA-MB-231 cells were injected into the mammary fat pad of CB17 SCID-beige mice. JO-4 (2 mg/kg) was intravenously injected 1 hour before the application of cetuximab (C) (10 mg/kg, i.p.) and nab-paclitaxel (nab-P) (5 mg/kg, i.v). Treatment was given weekly. N=10 P<0.01 at day 25 for nab-P+C vs JO-4+nab-P+C.
A549, MDA-MB-231, and ovc316 xenograft tumors were established by injection of the corresponding tumor cells into the mammary fat pad (1:1 with Matrigel) of CB17 mice. TC1-DSG2 tumors were established by subcutaneous injection of TC1-DSG2 cells into DSG2 transgenic mice. […] Tumor volumes were measured three times a week. […]

[1] = Serum clearance of JO-1 and JO-4 by ELISA; format: in vivo, hDSG2 transgenic mice; details: 2 mg/kg i.v.; for Decline of serum concentration within an hour after injection: TC1-hDSG2 tumors ~600 mm^3, N=3; for Serum concentration plateau: after one hour post-injection
Description: (§1) FIG. 11. Pharmacokinetics, toxicity, and immunogenicity of JO-4. A) Serum clearance of JO-1 and JO-4. hDSG2 transgenic mice with subcutaneous TC1-hDSG2 tumors (˜600 mm^3) were intravenously injected with JO-1 or JO-4 (2 mg/kg) and serum samples were analyzed for by ELISA. N=3. Note that the y-axis has a log scale. B) Lymphocyte and platelet counts in hDSG2/TC1-hDSG2 transgenic mice after JO-1 or JO-4 injection. N=3. C) Therapy studies in immunocompetent hDSG2 transgenic mice with TC1-hDSG2 tumors. When tumors reached a volume of ˜80 mm^3, JO-1 or JO-4 (2 mg/kg) or PBS was injected intravenously followed one hour later by PLD/Doxil (i.v. 1.5 mg/kg). Treatment was repeated as indicated by arrows. Tumors were then allowed to re-grow for about two weeks. From day 15 on serum anti-JO-1/J)-4 antibodies were detectable by ELISA. Two more treatment cycles were performed at day 28 and day 35. […] The difference between JO-1/PLD vs JO-4/PLD is significant from day 31 on. N=10.
Two of the affinity enhanced version of JO-1, Y293D and V250F were analyzed in in vivo assay. We called these mutants JO-2 and JO-4, respectively. The first study was performed in a xenograft model derived from A549 cells similar to the study described for FIG. 5B. […] Additional studies were performed in xenograft tumors derived from ovc316 cells (30, 32). Ovc316 cells are Her2/neu positive epithelial tumor cells derived from an ovarian cancer biopsy. These cells can undergo EMT and the reverse process, mesenchymal-to-epithelial-transition (MET), under specific conditions in vitro and in vivo. A subfraction of ovc316 cells that is positive for Nanog, CD133, and E-cadherin is enriched for cancer stem cells, i.e. self-renewing cells with pluripotent potential and tumor forming ability (30). Ovc316 cells therefore closely model the heterogeneity and plasticity seen in tumors in situ. […] Finally, we tested JO-4 in a model for triple-negative breast cancer (TNBC). TNBC is characterized by a lack or minimal expression of estrogen receptor (ER), progesterone receptor (PR) and the absence of Her2/neu overexpression. TNBC accounts for 15% of all breast cancers. Overall survival is poor compared with that in patients who have other phenotypes. A characteristic feature of TNBC is high levels of DSG2 and epithelial junctions. Promising clinical results in the treatment of TNBS have been achieved with nanoparticle, albumin-conjugated paclitaxel (nab-paclitaxel/Abraxane™) alone or in combination with the EGFR-targeting mAb cetuximab/Erbitux™ (38). […] Because of its therapeutic relevance, we further studied JO-4 in an adequate mouse tumor model. […] These mice were subcutaneously implanted with syngeneic TC1-hDSG tumors. […] We also analyzed hematological parameters after i.v. JO-1 and JO-4 injection.

[2] = Blood chemistry and blood cell counts after i.v. injection; format: in vivo, hDSG2 transgenic mice; details: for Blood chemistry / Blood cell counts: after i.v. injection; for Blood cell counts: N=3; for Time of nadir of lymphocyte and platelet counts: p.i.
Description: as §1
Two of the affinity enhanced version of JO-1, Y293D and V250F were analyzed in in vivo assay. We called these mutants JO-2 and JO-4, respectively. The first study was performed in a xenograft model derived from A549 cells similar to the study described for FIG. 5B. […] Additional studies were performed in xenograft tumors derived from ovc316 cells (30, 32). Ovc316 cells are Her2/neu positive epithelial tumor cells derived from an ovarian cancer biopsy. These cells can undergo EMT and the reverse process, mesenchymal-to-epithelial-transition (MET), under specific conditions in vitro and in vivo. A subfraction of ovc316 cells that is positive for Nanog, CD133, and E-cadherin is enriched for cancer stem cells, i.e. self-renewing cells with pluripotent potential and tumor forming ability (30). Ovc316 cells therefore closely model the heterogeneity and plasticity seen in tumors in situ. […] Finally, we tested JO-4 in a model for triple-negative breast cancer (TNBC). TNBC is characterized by a lack or minimal expression of estrogen receptor (ER), progesterone receptor (PR) and the absence of Her2/neu overexpression. TNBC accounts for 15% of all breast cancers. Overall survival is poor compared with that in patients who have other phenotypes. A characteristic feature of TNBC is high levels of DSG2 and epithelial junctions. Promising clinical results in the treatment of TNBS have been achieved with nanoparticle, albumin-conjugated paclitaxel (nab-paclitaxel/Abraxane™) alone or in combination with the EGFR-targeting mAb cetuximab/Erbitux™ (38). […] Because of its therapeutic relevance, we further studied JO-4 in an adequate mouse tumor model. […] These mice were subcutaneously implanted with syngeneic TC1-hDSG tumors. When tumors reached a volume of ˜600 mm^3, JO-1 or JO-4 was intravenously injected for safety and efficacy studies. […] After one hour post-injection JO-1 and JO-4 concentration reached a plateau with ˜100 ng/ml. We also analyzed hematological parameters after i.v. JO-1 and JO-4 injection.

TC1-hDSG2 tumors = test: Repeated-cycle PLD therapy study in immunocompetent mice with TC1-hDSG2 tumors; format: in vivo, hDSG2 transgenic mice; details: 2 mg/kg i.v. one hour before PLD/Doxil 1.5 mg/kg i.v.; 3rd and 4th cycles days 28 and 35; N=10
Description: as §1
A549, MDA-MB-231, and ovc316 xenograft tumors were established by injection of the corresponding tumor cells into the mammary fat pad (1:1 with Matrigel) of CB17 mice. […] Tumor volumes were measured three times a week. […]
JO-1 and JO-4 are virus-derived proteins and immunogenic. In immunocompetent mice, serum IgG antibodies against these proteins can be detected by ELISA two weeks after injection (5). […]

Molecule | Enhancement of PLD therapy (ovc316 xenograft tumors; 2 mg/kg i.v. one hour before PLD 1 mg/kg i.v.) | Decline of serum concentration within an hour after injection [1] | Serum concentration plateau [1] | Blood chemistry [2] | Blood cell counts [2] | Time of nadir of lymphocyte and platelet counts [2] | Enhancing effect on PLD therapy over repeated treatment cycles (TC1-hDSG2 tumors) | Enhancement of PLD therapy (ovc316 xenograft tumors; 0.5 mg/kg i.v. one hour before PLD 1 mg/kg i.v.) | Lymphocyte and platelet counts compared with JO-1 ([2]; nadir at 24 hours p.i. and recovery)
B1 | significantly increased the treatment efficiency | declined more than one order of magnitude | ~100 ng/mL | did not show abnormal changes | normal except for lymphocyte and platelet number, which decreased early after injection | 24 h | enhancing effect on PLD therapy; also recorded: continued to be effective after multiple treatment cycles | – | –
B2 | – | declined more than one order of magnitude; also recorded: significantly greater | ~100 ng/mL | did not show abnormal changes | normal except for lymphocyte and platelet number, which decreased early after injection | 24 h | enhancing effect on PLD therapy; also recorded: significantly stronger; also recorded: continued to be effective after multiple treatment cycles | even greater stimulating effect on PLD therapy; also recorded: enhances PLD therapy in an ovarian cancer model at lower dose than JO-1 | significantly lower numbers; also recorded: returned to normal levels faster
